experiment: yeast display, Sf9 membrane polyspecificity reagent, FACS + sequencing; frameworks hold sequencing errors
How it was run: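 After 36–48 hours of galactose induction, yeast (Saccharomyces cerevisiae BJ5465) displaying a synthetic nanobody library were stained at 4 °C for 1 hour with 10% biotinylated, detergent-solubilized Sf9 membrane reagent. Streptavidin microbeads enriched the stained cells before FACS sorting into low and high (top ~1%) gates on anti-HA and streptavidin fluorescence. Each clone's polyreactivity label reflects its gate of origin.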

Row | Sequence | polyreactivity (PSR sort gate)
1 | QVQLVESGGGLVQAGGSLRLSCAASGFIFPRYAMGWYRQAPGKERELVAGITSRGTGTYYADSVKGRFTISRDNAKNTVYLQMNSLKPEDTAVYYCARLSTKPLPYDYWGLGTQVTVSS | high polyreactivity
2 | QVQLVESGGGLVQAGGSLRLSCAASGFIFPSNVMGWYRQATGKERELVAAISTRGGRTYYADSVKGRFTISRDNAKNTVYLQMNSLKPEDTAVYYCAASISRQGGVGYWGQGTQVTVSS | high polyreactivity
3 | QVQLVESGGGLVQAGGSLRLSCAASGFIFPSYVMGWYRQAPWKERELVATISHSGGSTYYADSVKGRFTLSRDNAKNTVYLQMNSLKPEDTAVYYCATRRRGPYSPYSPYDYWGQGTQVTVSS | high polyreactivity
4 | QVQLVESGGGLVQAGGSLRLSCAASGFIFPVYTMGWYRQAPGKERELVAAITQIGGSTHYADSVTGRFTISRDNAKNTVYLQMNSLKPEDTAVYYCNAVPSYGTEYDYWGQGTQVTVSS | low polyreactivity
5 | QVQLVESGGGLVQAGGSLRLSCAASGFIFPYYAMGWYRQAPGQERELVAAITGGGSRTYYADSVKGRFTISRDNAKNTVYLQMNSLKPEDTAVYYCAKGLSTGRAYRGYDYWGQGTQVTVSS | high polyreactivity
6 | QVQLVESGGGLVQAGGSLRLSCAASGFIFQGYTMGWYRQAAGKERELVAAITSSGRTYYADSVKGRFTISRDNAKNTVYLQMNSLKPEDTAVYYCNADFLPSVANDYWGQGTQVTVSS | low polyreactivity
7 | QVQLVESGGGLVQAGGSLRLSCAASGFIFQHYAMGWYRQAPGKERELVAAISKSGGSTYYADSVKGRFTISRDNAKNTVYLQMNSLKPEDTAVYYCAKVAVAGRGSGNYINHRFDYWGQGTQVTVSS | high polyreactivity
8 | QVQLVESGGGLVQAGGSLRLSCAASGFIFQPYAMGWYRQAPGKERELVAAITSRGGRTYYADSVKGRFTISRDNAMNTVYLLMNSLKPEDTAVYYCAKRYAVYVTHFSRIRWYNYWGQGTQVTVSS | low polyreactivity
9 | QVQLVESGGGLVQAGGSLRLSCAASGFIFQPYAMGWYRQAPVKERELVAAITSRGGRTYYADSVKGRFTISRDNAKNTVYLQMNSLKPEDTAVYYCNADIYASEYYYWGQGTQVTVSS | low polyreactivity
10 | QVQLVESGGGLVQAGGSLRLSCAASGFIFQRYAMGWYRQAPGKERELVAAITRTGGRTYYADSVKGRFTISRDNAKNTVYLQMNSLKPEDTAVYYCAADRTLSYEYWGQGTQVTVSS | high polyreactivity
11 | QVQLVESGGGLVQAGGSLRLSCAASGFIFQSYAMGWYRQAPGKERELVASITRSGGSTYYADSVKGRFTISRDNAKNTVYLQMNSLKPEDTAVYYCNTYRNHYGWRKFNYWGQGTQVTVSS | high polyreactivity
12 | QVQLVESGGGLVQAGGSLRLSCAASGFIFQTNVMGWYRQAPGKERELVAAISSGDSTYYADSVKGRFTISRDNAKNTVYLQMNSLKPEDTAVYYCAARRGTGSYSYRYPYGYDYWGQGTQVTVSS | low polyreactivity
13 | QVQLVESGGGLVQAGGSLRLSCAASGFIFQYYAMGWYREAPGKERELVAAISKTGGSTYYADSVKGRFTISRDNAKNTVYLQMNSLKPEDTAVYYCAVARSAYYRGNHWGQGSQVTVSS | high polyreactivity
14 | QVQLVESGGGLVQAGGSLRLSCAASGFIFQYYAMGWYRQAPGKERELVAAITSGGTTYYADSVKGRFTISRDNAKNTVYLQMNSLKPEDTAVYYCAAVFVNFYARFDYWGQGTQVTVSS | low polyreactivity
15 | QVQLVESGGGLVQAGGSLRLSCAASGFIFRDNTMGWYRQAPGKEREFVAGITKSGGSTYYADSVKGRFTISRDNAKNTVYLQMNSLKPEDTAVYYCAAYVPYTRYDYWGQGTQVTVSS | high polyreactivity
16 | QVQLVESGGGLVQAGGSLRLSCAASGFIFRDYAMGWYRQAPGKERELVAAIDYSGGSTNYADSVKGRFTISRDNAKNTVYLQMNSLKPEDTAVYYCNAEYTWHRGYEYWGQGTQVTVSS | low polyreactivity
17 | QVQLVESGGGLVQAGGSLRLSCAASGFIFRDYVMGWYRQAPGKERELVAAISYRGGSTNYADSVKGRFTISRDNAKNTVYLQMNSLKPEDTAVYSCAADQVHKREYDYWGQGTQVTVSS | low polyreactivity
18 | QVQLVESGGGLVQAGGSLRLSCAASGFIFRGNAMGWYRQAPGKERELVAAISKRGGSTNYADSVKGRFTISRDNAKNTVYLQMNSLKPEDTAVYYCNAEGIYRQPRGYVYRYDYWGQGTQVTVSS | high polyreactivity
19 | QVQLVESGGGLVQAGGSLRLSCAASGFIFRGYAMGWYRQPPGKERELVATITNGGSTYYADSVKGRFTISRDNAKNTVYLQMNSLKPEDTAVYFCAAVTKFGEYAPGSKGYGYWGQGSQVTVSS | low polyreactivity
20 | QVQLVESGGGLVQAGGSLRLSCAASGFIFRIYAMGWYRQAPGKERELVAAITWDGVSTYYADSVKGRFTISRDNAKNTVYLQMNSLKPEDTAVYYCAARKRSYPYYYWGQGTQVTVSS | high polyreactivity
21 | QVQLVESGGGLVQAGGSLRLSCAASGFIFRNYAMGWSRQAPGKERELVAAITRSGTSTYYADSVKGRFTISRDNAKNTVYLQMNSLKPEDTAVYYCNAGWGLRLSWLGNYWGQGTQVTVSS | high polyreactivity

Row | Sequence | polyreactivity (PSR sort gate)
22 | QVQLVESGGGLVQAGGSLRLSCAASGFIFRPYVMGWYRQAPGKERELVAAISRSGSSTYYADSVKGRFTISRDNAKNTVYLQMNSLQPEDTAVYYCARRTSQEFDYWGQGTQVTVSS | high polyreactivity
23 | QVQLVESGGGLVQAGGSLRLSCAASGFIFRQNAMGWYRQAPGKERELVAAITSSGGRTYYADSVKGRFTISRDNAKNTVYLQMNSLKPEDTAVYYCARRDYWGQGTQVTVSS | high polyreactivity
24 | QVQLVESGGGLVQAGGSLRLSCAASGFIFRRNAMGWSRQAPRKERELVAAISSRGGTTYYADSVKGRFTISRDNAKNTVYLQMNSLKPEDTAVYYCNAVKFGATAYDYWGQGTQVTVSS | high polyreactivity
25 | QVQLVESGGGLVQAGGSLRLSCAASGFIFRRNAMGWYRQAPGKERELVASIRSGGSTKYADSVKGRFTISRDNAKNTVYLQMNSLKPEDTAVYYCAKDRYHISFFYQMEYWGQGTQVTVSS | low polyreactivity
26 | QVQLVESGGGLVQAGGSLRLSCAASGFIFRRYAMGSYRQAPGKERELVAAISGSGGRTYYADSVKGRFTISRDNAKNTVYLQMNSLKPEDTAVYYCAADHGSLLYDYWGQGTQVTVSS | high polyreactivity
27 | QVQLVESGGGLVQAGGSLRLSCAASGFIFRRYAMGWYRQAPGKERELVAAISGRGASTYYGDSVKGRFTISRDNAKNNVYVQMNSLKPEDTAAYYCNAVPDNLNYDYWGQGTQVTVSS | high polyreactivity
28 | QVQLVESGGGLVQAGGSLRLSCAASGFIFRRYAMGWYRQPPGKERELVAAISGSGGRTYYADSVKGRFTISRDNAKNTVYLQMNSLKPEDTAVYYCAADHGSLLYDYWGQGTQVTVSS | high polyreactivity
29 | QVQLVESGGGLVQAGGSLRLSCAASGFIFRRYTMGWYTQAPGKERELVATITRSVNTDYADSVKGRFTISRDNAKNTVYLQMNSLKPEDTAVYYCAARKYYYFPVAYDYWGQGTQVTVSS | high polyreactivity
30 | QVQLVESGGGLVQAGGSLRLSCAASGFIFRSYAMGWYRQAPGKEREFVAAITTRGTGTYYADSVKGRFTISRDNAKNTVYLQMNSLKPEDTAVYDCAARRGWGDDYWGQGTQVTVSS | high polyreactivity
31 | QVQLVESGGGLVQAGGSLRLSCAASGFIFRSYAMGWYRQAPGKEREFVASISSRGGTTYYADSVKGRFTISRDNAKNTVYLQMNSLKTEDTAVYYCYAKRRYGPDKYDYWGQGTQVTVSS | high polyreactivity
32 | QVQLVESGGGLVQAGGSLRLSCAASGFIFRSYAMGWYRQAPGKERELVAAISRSGGSTYYADSVKGRFTISRDNAKNTVYLQMNSLKPEDTAVYYCNTARRDREVDYWGQGTQVTVSS | high polyreactivity
33 | QVQLVESGGGLVQAGGSLRLSCAASGFIFRSYAMGWYRQAPGKERELVAVISRRGVNTHYADSVKGRFTISRDNAKNTVNLQMNSLKPEDTAVYYCAKGLTALGDYWGQGTQVTVSS | high polyreactivity
34 | QVQLVESGGGLVQAGGSLRLSCAASGFIFRSYDMGWYRQAPGKERELVAAITRGGRTYYADSVKGRFTISRDNAKNTVYLQMNSLKPEDTAVYYCAARGTHVADGYYWGQGTQVTVSS | high polyreactivity
35 | QVQLVESGGGLVQAGGSLRLSCAASGFIFRSYVMGWYRQAPGKEREFVAVITSSGGRTYYADSVKGRFTISRDNAKNTVYLQMNSLKPEDTAVYYCAATRRYPPRRVWYDYWGQGTEVTVSS | high polyreactivity
36 | QVQLVESGGGLVQAGGSLRLSCAASGFIFRTYAMGWYRQAPGKERELVATITGDGSTNYADSVKGRFTISRDNAKNTVYLQMNSLKPEDTAVYYCSRDDRLAGDYWGQGTQVTVSS | low polyreactivity
37 | QVQLVESGGGLVQAGGSLRLSCAASGFIFRVNAMGWYRQAPGKERELVATITWNGGSTYYADSVKGRFTISRDNAKNTVYLQMNSLKPEDTAVYYCNRVRYRGYYPGPYSYSYDYWGQGTQVTVSS | low polyreactivity
38 | QVQLVESGGGLVQAGGSLRLSCAASGFIFRVYTMVWYRQAPGKERELVAAISYRGGRTYYADSVKGRFTISRDNAKNTVFLQMNSLKPEDTAVYYCAADRVNREFDYWGQGTQVTVSS | high polyreactivity
39 | QVQLVESGGGLVQAGGSLRLSCAASGFIFRWYAMGWYRQAPGKERDLVATISSGGSTYYADSVKGRFTISRDNAMNTFYLQMISLKPEDTAVYYCAARFHYRGALYYYWGQGTQVTVSS | high polyreactivity
40 | QVQLVESGGGLVQAGGSLRLSCAASGFIFRWYAMGWYRQAPGKERELVAAISRSGDSTYYADSVKGRFTISRDNAKNTVYLQMNSLKPEETAVYYCAADDRYYTYGYDYWGQGTQVTVSS | low polyreactivity
41 | QVQLVESGGGLVQAGGSLRLSCAASGFIFRYNAMGWYRQAPGKEREFVAAISQGGASTYYADSVKGRFTISRVNAKNTVYLQINSLKPEDTAVYYCAREPSIFTPSYDYWGQGTQVTVSS | low polyreactivity

Source: the nanobody polyreactivity screen of Harvey et al. (2022)
